Results reported in patent EP2717941B1.
One block for each substance: values may come before it.

How the values were obtained:
Assay in all cases: cell-based or functional assay
hCXCR3 (human) = hCXCR3 (human) (UniProt P49682)
[1] = target: chemokine receptor CCR7 (human) (UniProt P32248)
CCR4 (human) = CCR4 (human) (UniProt P51679)
hCCR9 (human) = hCCR9 (human) (UniProt P51686)
hCCR10 (human) = hCCR10 (human) (UniProt P46092)
hCXCR4 (human) = hCXCR4 (human) (UniProt P61073)
CCR6 (human) = CCR6 (human) (UniProt P51684)
Sequence of CCR6 (human) (P51684 whole entry): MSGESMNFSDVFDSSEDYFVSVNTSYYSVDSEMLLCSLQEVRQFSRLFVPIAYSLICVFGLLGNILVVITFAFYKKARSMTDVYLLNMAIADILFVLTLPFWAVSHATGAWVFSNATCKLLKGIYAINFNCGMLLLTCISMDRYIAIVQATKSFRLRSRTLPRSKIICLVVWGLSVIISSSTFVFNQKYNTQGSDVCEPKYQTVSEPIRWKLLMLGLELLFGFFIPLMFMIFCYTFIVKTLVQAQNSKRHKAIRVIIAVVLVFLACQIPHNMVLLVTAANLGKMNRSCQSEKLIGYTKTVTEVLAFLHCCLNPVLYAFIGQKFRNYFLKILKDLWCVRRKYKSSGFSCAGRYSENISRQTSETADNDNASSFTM

hCCR2b (human) = hCCR2b (human) (UniProt P41597)
Sequence of hCCR2b (human) (P41597 other isoform, or with tags, fused parts or gaps limits assumed): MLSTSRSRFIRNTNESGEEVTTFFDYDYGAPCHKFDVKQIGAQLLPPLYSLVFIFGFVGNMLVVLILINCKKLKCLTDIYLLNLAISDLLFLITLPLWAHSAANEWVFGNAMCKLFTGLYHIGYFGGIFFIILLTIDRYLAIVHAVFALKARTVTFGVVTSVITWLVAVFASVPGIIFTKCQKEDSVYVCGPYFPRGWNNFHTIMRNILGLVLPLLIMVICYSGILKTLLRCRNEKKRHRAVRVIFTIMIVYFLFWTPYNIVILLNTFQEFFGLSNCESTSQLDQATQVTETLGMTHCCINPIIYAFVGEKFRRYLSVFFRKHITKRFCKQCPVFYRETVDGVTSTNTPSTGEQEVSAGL

Sequence of hCXCR3 (human) (P49682 whole entry): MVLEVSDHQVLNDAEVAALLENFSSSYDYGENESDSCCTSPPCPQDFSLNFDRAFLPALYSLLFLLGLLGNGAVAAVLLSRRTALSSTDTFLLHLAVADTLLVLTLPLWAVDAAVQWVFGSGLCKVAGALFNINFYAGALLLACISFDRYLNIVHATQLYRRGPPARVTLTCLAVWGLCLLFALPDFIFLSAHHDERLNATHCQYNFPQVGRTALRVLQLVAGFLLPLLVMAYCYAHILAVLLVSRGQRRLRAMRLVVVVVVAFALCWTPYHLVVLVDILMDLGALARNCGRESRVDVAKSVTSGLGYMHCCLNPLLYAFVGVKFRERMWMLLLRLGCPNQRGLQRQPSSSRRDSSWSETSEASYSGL
Sequence of hCCR9 (human) (P51686 whole entry): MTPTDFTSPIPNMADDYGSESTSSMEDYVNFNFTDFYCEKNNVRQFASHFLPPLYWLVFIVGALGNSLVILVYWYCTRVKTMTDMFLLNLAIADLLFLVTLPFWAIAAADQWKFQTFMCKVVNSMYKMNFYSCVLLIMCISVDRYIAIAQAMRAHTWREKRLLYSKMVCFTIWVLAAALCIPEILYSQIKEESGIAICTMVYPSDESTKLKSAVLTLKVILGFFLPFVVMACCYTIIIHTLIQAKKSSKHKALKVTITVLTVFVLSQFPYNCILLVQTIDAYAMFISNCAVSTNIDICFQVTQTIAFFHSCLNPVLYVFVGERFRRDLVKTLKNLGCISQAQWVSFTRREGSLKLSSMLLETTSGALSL
Sequence of CCR4 (human) (P51679 whole entry): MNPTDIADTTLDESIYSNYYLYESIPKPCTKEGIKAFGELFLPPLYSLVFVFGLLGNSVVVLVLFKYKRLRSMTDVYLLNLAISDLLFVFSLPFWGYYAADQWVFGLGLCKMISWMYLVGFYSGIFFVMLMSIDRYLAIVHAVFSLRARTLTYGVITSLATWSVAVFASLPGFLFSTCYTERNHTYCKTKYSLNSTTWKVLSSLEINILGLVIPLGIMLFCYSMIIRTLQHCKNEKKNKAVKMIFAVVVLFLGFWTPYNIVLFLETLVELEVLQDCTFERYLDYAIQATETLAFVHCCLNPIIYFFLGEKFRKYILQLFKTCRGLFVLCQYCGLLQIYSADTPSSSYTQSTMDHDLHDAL
Sequence of hCCR10 (human) (P46092 whole entry): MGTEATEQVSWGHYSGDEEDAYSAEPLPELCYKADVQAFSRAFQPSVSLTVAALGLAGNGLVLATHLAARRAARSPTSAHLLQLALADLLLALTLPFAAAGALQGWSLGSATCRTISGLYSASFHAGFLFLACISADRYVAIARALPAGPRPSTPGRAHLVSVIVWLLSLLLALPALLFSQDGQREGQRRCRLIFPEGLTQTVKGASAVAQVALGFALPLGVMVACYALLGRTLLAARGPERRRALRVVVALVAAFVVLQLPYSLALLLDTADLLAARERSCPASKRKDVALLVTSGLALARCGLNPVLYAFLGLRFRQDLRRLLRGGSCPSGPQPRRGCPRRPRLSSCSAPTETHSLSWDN
Sequence of chemokine receptor CCR7 (human) (P32248 25-378): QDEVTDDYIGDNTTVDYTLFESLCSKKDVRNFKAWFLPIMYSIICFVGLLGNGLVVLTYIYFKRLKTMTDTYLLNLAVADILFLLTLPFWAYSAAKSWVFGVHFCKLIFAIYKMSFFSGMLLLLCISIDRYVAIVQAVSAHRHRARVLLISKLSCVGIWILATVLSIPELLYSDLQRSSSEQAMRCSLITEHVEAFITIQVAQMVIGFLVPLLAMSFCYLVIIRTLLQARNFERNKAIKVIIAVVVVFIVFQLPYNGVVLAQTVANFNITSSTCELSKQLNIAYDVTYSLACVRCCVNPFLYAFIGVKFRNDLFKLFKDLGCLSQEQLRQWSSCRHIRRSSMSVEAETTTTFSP
Sequence of hCXCR4 (human) (P61073 whole entry): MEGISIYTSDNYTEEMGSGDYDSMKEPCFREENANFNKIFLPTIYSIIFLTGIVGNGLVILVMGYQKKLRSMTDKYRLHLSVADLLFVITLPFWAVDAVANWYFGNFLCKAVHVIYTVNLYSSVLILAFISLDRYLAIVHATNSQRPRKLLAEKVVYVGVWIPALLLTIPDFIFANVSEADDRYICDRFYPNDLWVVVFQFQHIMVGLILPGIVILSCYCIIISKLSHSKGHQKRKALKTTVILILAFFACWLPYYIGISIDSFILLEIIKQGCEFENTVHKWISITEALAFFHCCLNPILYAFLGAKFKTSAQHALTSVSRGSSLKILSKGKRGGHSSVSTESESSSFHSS

EC50, agonist activity, Aequorin assay (hCXCR3 (human)): 0.7 nM
Substance: recombinant native ITAC (from UniProt O14625 22-94) (ligand)

EC50, agonist activity, Aequorin assay [1]: 1.6 nM
Substance: recombinant native MIP-3β (from UniProt Q99731 22-98) (ligand)

EC50, agonist activity, Aequorin assay (CCR4 (human)): 3.6 nM
Substance: recombinant native MDC (from UniProt O00626 25-93) (ligand)

EC50, agonist activity, Aequorin assay (hCCR9 (human)): 63.6 nM
Substance: biotinTECK(Met to Nleu substitution) (CCL25), derivatised at the ε-amino side chain functionality of Lys72 with PEG-Biotin (from UniProt O15444 25-97) (ligand)

EC50, agonist activity, Aequorin assay (hCCR9 (human)): 67.9 nM
Substance: recombinant native TECK (from UniProt O15444 24-150) (ligand)

EC50, agonist activity, Aequorin assay (hCCR10 (human)): 33.5 nM
Substance: recombinant native CTAC (from UniProt Q9Y4X3 25-112) (ligand)

EC50, agonist activity, Aequorin assay (hCXCR4 (human)): 17.3 nM
Substance: biotinSDF-1α (CXCL12), SDF-1α derivatised at the ε-amino side chain functionality of Lys(64) with Biotin (from UniProt P48061 22-67) (ligand)

EC50, agonist activity, Aequorin assay (hCXCR3 (human)): 4.4 nM
Substance: recombinant native IP-10 (from UniProt P02778 22-98) (ligand)

EC50, agonist activity, Aequorin assay (CCR6 (human)): 1 nM
Substance: recombinant native MIP-3α (from UniProt P78556 27-96) (ligand)

EC50, Aequorin assay (partial agonist) (hCCR2b (human)): 23.5 nM
Substance: recombinant native MCP-2 (from UniProt P80075 24-99) (ligand)

EC50, agonist activity, Aequorin assay (CCR4 (human)): 2.6 nM
Substance: recombinant native TARC (from UniProt Q92583 24-94) (ligand)

reduction of CCR6-expressing cells by the column (flow cytometry before and after passage) (CCR6 (human)): < 15%
Substance: biotinylated MIP-3alpha (from UniProt P78556 27-96) (ligand)
